Reference: patent US20200317768A1 (published 2020)

Legend:
[1] = molecular target: T1, human FcγRIIb extracellular domain, C-terminal His-tag (human, UniProt P31994 43-217); assay: SPR (BIACORE), antibody captured, FcγR analyte
T1 construct: also called humanFcgRIIb; not shown: His-tag added to C-terminus
T1 sequence: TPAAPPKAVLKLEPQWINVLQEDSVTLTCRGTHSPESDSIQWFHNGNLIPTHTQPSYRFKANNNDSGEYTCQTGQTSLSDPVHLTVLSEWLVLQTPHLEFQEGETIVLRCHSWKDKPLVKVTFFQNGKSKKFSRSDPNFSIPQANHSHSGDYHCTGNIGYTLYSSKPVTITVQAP

[2] = molecular target: T2, cynomolgus monkey FcγRIIa1 extracellular domain, C-terminal His-tag (cynomolgus monkey); assay: SPR (BIACORE), antibody captured, FcγR analyte
T2 construct: also called cyno FcγRIIa1; cynoFcgRIIa1; not shown: His-tag added to C-terminus
T2 chain: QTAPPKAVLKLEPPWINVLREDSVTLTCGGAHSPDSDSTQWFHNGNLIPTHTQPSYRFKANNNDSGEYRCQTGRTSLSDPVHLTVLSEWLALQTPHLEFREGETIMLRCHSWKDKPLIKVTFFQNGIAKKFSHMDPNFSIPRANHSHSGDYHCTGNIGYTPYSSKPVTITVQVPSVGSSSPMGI

[3] = molecular target: T3, cynomolgus monkey FcγRIIIaS extracellular domain, C-terminal His-tag (cynomolgus monkey, UniProt A3RFZ7 21-206 (rhesus entry)); assay: SPR (BIACORE); KD of parent SG1 / KD of variant;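 further: relative to parent M103205H795-SG1 carrying the SG1 human heavy chain constant region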
T3 construct: also called cyno FcγRIIIaS; cynoFcγRIIIaS; not shown: His-tag added to C-terminus

[4] = molecular target: T4, human FcγRIIaH extracellular domain, C-terminal His-tag (human, UniProt P12318 34-217); assay: SPR (BIACORE); KD of parent SG1 / KD of variant;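 further: relative to parent M103205H795-SG1 carrying the SG1 human heavy chain constant region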
T4 construct: also called human FcγRIIa (type H); FcgRIIaH; not shown: His-tag added to C-terminus
T4 sequence: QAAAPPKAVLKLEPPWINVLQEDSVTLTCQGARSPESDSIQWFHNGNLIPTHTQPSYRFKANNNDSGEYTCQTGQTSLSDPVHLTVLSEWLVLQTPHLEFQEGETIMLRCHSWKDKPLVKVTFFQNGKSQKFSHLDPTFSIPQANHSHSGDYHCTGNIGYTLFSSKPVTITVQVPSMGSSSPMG

[5] = molecular target: T1, human FcγRIIb extracellular domain, …; assay: SPR (BIACORE); KD of parent SG1 / KD of variant;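 further: relative to parent M103205H795-SG1 carrying the SG1 human heavy chain constant region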
[6] = molecular target: T5, cynomolgus monkey FcγRIIa3 extracellular domain, C-terminal His-tag (cynomolgus monkey); assay: SPR (BIACORE); KD of parent SG1 / KD of variant;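 further: relative to parent M103205H795-SG1 carrying the SG1 human heavy chain constant region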
T5 construct: also called cyno FcγRIIa3; cynoFcgRIIa3; not shown: His-tag added to C-terminus
T5 chain: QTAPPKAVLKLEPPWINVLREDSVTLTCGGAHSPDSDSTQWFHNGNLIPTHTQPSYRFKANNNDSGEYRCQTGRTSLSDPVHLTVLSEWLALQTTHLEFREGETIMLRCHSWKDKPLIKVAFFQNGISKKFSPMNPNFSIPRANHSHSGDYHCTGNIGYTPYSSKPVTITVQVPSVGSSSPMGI

[7] = molecular target: T6, human FcγRIIIaV extracellular domain, C-terminal His-tag (human, UniProt P08637 17-208); assay: SPR (BIACORE); KD of parent SG1 / KD of variant
T6 construct: also called FcgRIIIaV; not shown: His-tag added to C-terminus

[8] = molecular target: T7, human FcγRIIaR extracellular domain, C-terminal His-tag (human, UniProt P12318 34-217); assay: SPR (BIACORE); KD of parent SG1 / KD of variant
T7 construct: also called human FcγRIIa (type R); FcgRIIaR; not shown: His-tag added to C-terminus
T7 chain: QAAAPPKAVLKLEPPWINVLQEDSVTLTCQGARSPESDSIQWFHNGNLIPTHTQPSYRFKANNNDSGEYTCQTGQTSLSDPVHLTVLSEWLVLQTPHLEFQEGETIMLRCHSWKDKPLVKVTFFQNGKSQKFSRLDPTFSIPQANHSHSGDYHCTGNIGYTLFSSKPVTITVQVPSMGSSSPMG

[9] = molecular target: T8, cynomolgus monkey FcγRIIa2 extracellular domain, C-terminal His-tag (cynomolgus monkey); assay: SPR (BIACORE); KD of parent SG1 / KD of variant
T8 construct: also called cyno FcγRIIa2; cynoFcgRIIa2; not shown: His-tag added to C-terminus
T8 chain: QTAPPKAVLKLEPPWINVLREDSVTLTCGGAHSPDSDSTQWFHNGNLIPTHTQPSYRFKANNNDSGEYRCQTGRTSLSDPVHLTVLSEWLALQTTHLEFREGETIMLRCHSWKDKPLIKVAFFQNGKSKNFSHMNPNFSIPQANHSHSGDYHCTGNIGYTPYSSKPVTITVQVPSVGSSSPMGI

[10] = molecular target: T2, cynomolgus monkey FcγRIIa1 …; assay: SPR (BIACORE); KD of parent SG1 / KD of variant

T3 sequence (A3RFZ7 21-206): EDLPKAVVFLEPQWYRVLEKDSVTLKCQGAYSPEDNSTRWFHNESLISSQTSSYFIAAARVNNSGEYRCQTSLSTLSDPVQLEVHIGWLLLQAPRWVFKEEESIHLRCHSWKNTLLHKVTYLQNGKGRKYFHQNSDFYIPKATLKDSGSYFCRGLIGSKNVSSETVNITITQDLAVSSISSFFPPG
T6 sequence (P08637 17-208 F176V): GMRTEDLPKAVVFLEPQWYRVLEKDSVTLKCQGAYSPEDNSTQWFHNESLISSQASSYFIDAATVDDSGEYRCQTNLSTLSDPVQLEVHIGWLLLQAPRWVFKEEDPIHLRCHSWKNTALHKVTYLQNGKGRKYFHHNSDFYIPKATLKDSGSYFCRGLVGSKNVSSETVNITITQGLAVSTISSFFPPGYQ

B1: MS_M103205H795-SG1/M103202L889-SK1 (antibody, human IgG1, kappa)
heavy: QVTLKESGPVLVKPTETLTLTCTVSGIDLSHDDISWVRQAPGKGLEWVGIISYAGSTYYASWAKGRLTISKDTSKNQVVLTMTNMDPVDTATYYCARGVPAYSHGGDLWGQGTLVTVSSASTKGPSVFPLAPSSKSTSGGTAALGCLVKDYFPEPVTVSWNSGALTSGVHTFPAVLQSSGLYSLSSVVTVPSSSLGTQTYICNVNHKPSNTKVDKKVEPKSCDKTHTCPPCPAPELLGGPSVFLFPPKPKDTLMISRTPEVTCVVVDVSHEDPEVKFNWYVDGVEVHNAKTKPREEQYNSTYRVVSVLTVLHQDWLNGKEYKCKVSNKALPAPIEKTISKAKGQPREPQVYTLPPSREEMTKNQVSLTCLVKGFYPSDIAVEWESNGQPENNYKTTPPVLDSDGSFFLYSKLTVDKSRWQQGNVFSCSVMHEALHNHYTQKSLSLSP
light: DIVMTQSPATLSLSPGERATLSCTSSQSVYHANWLSWFQQKPGQPPKLLIYWASTLAYGVPSRFSGSGSGTDFTLTISSLQPEDAATYYCAGGYGGGRYAFGQGTKVEIKRTVAAPSVFIFPPSDEQLKSGTASVVCLLNNFYPREAKVQWKVDNALQSGNSQESVTEQDSKDSTYSLSSTLTLSKADYEKHKVYACEVTHQGLSSPVTKSFNRGEC
notes: Parent antibody with SG1 human heavy chain constant region; also called MS1032LO06-SG1
Kd [1]: 4.7 µM | Kd [2]: 4.8 µM | KD fold (SG1 = 1) [3]: 1 fold | KD fold (SG1 = 1) [4]: 1 fold | KD fold (SG1 = 1) [5]: 1 fold | KD fold (SG1 = 1) [6]: 1 fold | KD fold (SG1 = 1) [7]: 1 fold | KD fold (SG1 = 1) [8]: 1 fold | KD fold (SG1 = 1) [9]: 1 fold | KD fold (SG1 = 1) [10]: 1 fold
